The text below walks through data of patent US20230125500A1, “ANGIOSTATIN NEUTRALIZING PEPTIDES DERIVED FROM ATP SYNTHASE ALPHA SUBUNIT” (The Governors of the University of Alberta, priority 2021, published 2023).

Assay [1] addresses T1, angiostatin kringles 1-4 (Homo sapiens, UniProt P00747).
T1 construct: the resulting peptides incubated with purified angiostatin kringles 1-4
As to the kind of experiment: Immunoprecipitation of angiostatin K1-4 after incubation with trypsinized ATP synthase subunit α, mass spectrometry of bound peptides. In kind it is binding. The settings on record: for abundance based on peptide spectral matches (PSMs): angiostatin-bound peptides after immunoprecipitation; for binding to angiostatin (immunoprecipitation, mass spectrometry): peptides from trypsin digest of recombinant F1F0 ATP synthase subunit α incubated with purified angiostatin kringles 1-4. The method, then: Trypsin digestion of ATP synthase subunit α. Recombinant F1F0 ATP synthase subunit α was digested with trypsin, and following heat-inactivation of trypsin the resulting peptides incubated with purified angiostatin kringles 1-4. Subsequently, the angiostatin was immunoprecipitated and submitted for mass spectroscopy analysis to identify any potential bound peptides of subunit α.

Assay [2] deals with fibrinolysis. As to the kind of experiment: In vitro fibrinolysis assay in citrated human plasma. Format: biochemical. The settings on record: recalcified human plasma, thrombin + tPA 1 μg/ml, 2 hours 37° C.; combined peptides each 1 μM, aprotinin 10 μM. The protocol:
Fibrinolysis Assays. Citrated human plasma (platelet-free) was recalcified to a final free Ca^2+ concentration of 2.5 mM. After recalcification, plasma was incubated with a peptide 1, 2, 3, or with combined a peptides 1-3 (each 1 μM), or with negative control 8 peptide (3 μM) or with aprotinin (10 μM) as positive control for inhibiting fibrinolysis. To initiate clotting ice-cold thrombin (0.3 U/ml) was added to each well, while to initiate fibrinolysis human tissue plasminogen activator (1 μg/ml; Sigma) was added. After 2 hours incubation at 37° C. the absorbance at 405 nm was measured using a Bio-Rad iMark microplate reader and the results were expressed as percent fibrinolysis.

The subject of assay [3] is eNOS protein expression. The assay is described as follows: Immunoblot of eNOS in angiostatin-treated hypoxic HMVEC-C. In kind it is cell-based, Human. The settings on record: 48 hours hypoxic conditions, peptides tested with angiostatin. The method, then:
(§1) Cell culture and hypoxia. Cardiac-derived Human microvascular endothelial cells from (HMVEC-C) were obtained from Lonza (Walkersville, Md., USA) and cultured in a humidified atmosphere at 37° C. and 5% CO2 in EGM-2 MV. Depending on the donor, the primary endothelial cells were serum starved for 4-16 h in EBM-2 and 0.5% FBS prior to exposure to hypoxic conditions. The time of serum starvation prior to treatment was titrated to induce approximately 40% apoptosis following treatment under normoxic conditions. Hypoxia was induced by exposing endothelial cells for 48 h under serum-starved conditions in a Billups-Rothenberg chamber continuously gassed with 95% N2-5% CO2.
(§2) Immunoblots. HMVEC-L lysates were subjected to 8% sodium dodecyl sulfate-polyacrylamide gel electrophoresis Blots were blocked overnight in TTBS and 5% non-fat milk and then cut at the 50 KDa across the membrane. Subsequently the >50 KDa upper membrane was incubated with either rabbit anti-human MMP-14 (MT1-MMP) (1 μg/ml) (Millipore) (Etobicoke, ONT, Canada), or mouse anti-eNOS (1:1000) (Abcam) (Toronto, ONT, Canada) for 2 h. Anti-mouse (1:10,000), or anti-rabbit (1:5000) horseradish peroxidase-conjugated antibodies were used as the secondary antibodies (Sigma, Oakville, ON, Canada). […] Blot bands were quantified using ImageJ software (Bio-Rad, Mississauga, ON, Canada) and expressed as arbitrary units of density per β-actin.

The test system of assay [4] is MT1-MMP protein expression. As to the kind of experiment: Immunoblot of MT1-MMP (MMP-14) in angiostatin-treated hypoxic HMVEC-C. Format: cell-based, Human. As to conditions: 48 hours hypoxic conditions, peptides tested with angiostatin. The method, then:
as §1, §2

Assay [5] relates to MMP-2 protein expression. The assay is described as follows: Gelatin zymography of MMP-2 in HMVEC-C lysates. As to conditions: 48 hours hypoxic conditions, peptides tested with angiostatin. In kind it is cell-based, Human. The method, then:
as §1
Gelatin zymography. Gelatin zymography was used to assess MMP-2 levels within HMVEC-C lysates. Zymography was performed using 8% SDS-PAGE with copolymerized gelatin (2 mg/ml). After electrophoresis, gels were washed 3× for 20 min in 2% Triton X-100. Next, gels were washed 2· for 20 min in developing buffer (50 mM Tris-HCl pH 7.6, 150 mM NaCl, 5 mM CaCl2), and 0.05% NaN3) and then incubated in developing buffer at 37° C. overnight. Gels were stained with 0.05% Coomassie Brilliant Blue and then destained in a 4% ethanol and 8% acetic acid solution. Gelatinolytic activity was detected as transparent bands against a blue background of Coomassie-stained gelatin. […]

In assay [6] the test system is HMVEC-C. As to the kind of experiment: Endothelial cell migration assay under hypoxia. In kind it is cell-based, Human. The settings on record: hypoxia 48 hours, VEGF 10 ng/ml chemoattractant, angiostatin 600 nM; combined peptides 1 μM each. The method, then:
Migration assays. 24-well plate inserts with […] pores (Falcon Corning, Tewksbury, Mass., USA) were coated with 1 mg/ml gelatin and incubated at 37° C. for 2 hours to allow gelatin to solidify. Excess gelatin was aspirated and inserts were left to dry overnight under UV light, then gently washed once with 100μl of PBS. Once approximately 80% confluent, HMVEC-C were serum starved for 8 hours in 0.5% FBS in EBM-2. Cells were trypsinized and seeded into the top chamber of the gelatin-coated inserts at a concentration of 25 000 cells/insert. Recombinant VEGF (10 ng/ml) in 0.5% FBS in EBM-2 was added to the corresponding bottom chambers to serve as a chemoattractant. HMVEC-C were treated with PBS control, angiostatin (600 nM), angiostatin (600 nM)+a peptide 1 through 3 (3 μM), angiostatin (600 nM)+negative-control 6 peptide (3 μM), and angiostatin (600 nM)+combined a peptide 1-3 (1 μM each). The system was incubated in hypoxia (95% N2, 5% CO2) for 48 hours. After incubation, the top layer of each insert was scraped gently using a Q-tip to remove the non-migrated cells. Migrated cells at the bottom of the insert were fixed in 4% formaldehyde in PBS for five minutes, followed by staining using Diffquik stain (Siemens Healthcare Diagnostics Inc., Newark, Del., USA). […] Cells were counted using ImageJ software, and expressed as migration percent of PBS control.

T1 sequence (P00747 79-466 limits assumed): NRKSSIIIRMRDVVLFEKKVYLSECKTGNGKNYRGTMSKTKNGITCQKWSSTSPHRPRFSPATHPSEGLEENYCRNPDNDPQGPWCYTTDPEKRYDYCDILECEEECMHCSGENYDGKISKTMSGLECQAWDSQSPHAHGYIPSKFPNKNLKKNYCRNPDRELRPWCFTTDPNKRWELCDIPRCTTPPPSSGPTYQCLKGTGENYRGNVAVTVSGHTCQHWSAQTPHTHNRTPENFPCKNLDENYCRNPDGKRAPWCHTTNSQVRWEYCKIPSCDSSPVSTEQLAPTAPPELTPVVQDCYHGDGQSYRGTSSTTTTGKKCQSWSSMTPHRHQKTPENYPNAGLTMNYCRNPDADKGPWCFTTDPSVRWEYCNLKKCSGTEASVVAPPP

Turning to AVDSLVPIGR [Alpha peptide 3], in assay [1], the “abundance based on peptide spectral matches (PSMs)” value (“abundance based” for short) is on record as “medium abundance” and the “binding to angiostatin (immunoprecipitation, mass spectrometry)” value (from here on “binding to angiostatin”) is “bound to angiostatin”.

In the case of TGTAEMSSILEER [Alpha peptide 1], in assay [1], the “abundance based” value is recorded as “high abundance” and the “binding to angiostatin” value is recorded as “bound to angiostatin”.

As to aprotinin, the inhibition of fibrinolysis result in assay [2] is reported as “fibrinolysis inhibitor”.

“VPTLQVLRPGLVV [delta peptide, reference compound]”: in assay [3], the “eNOS levels (immunoblot)” value was “failed to significantly increase”. Also, in assay [4], the “MT1-MMP levels (immunoblot)” value is recorded as “failed to significantly increase”. Also, the “MMP-2 levels (gelatin zymography)” value in assay [5] is recorded as “failed to significantly increase”.

In the case of TSIAIDTIINQK [Alpha peptide 2], in assay [1], the “abundance based” value was “medium abundance” and the “binding to angiostatin” value is “bound to angiostatin”.

B1: angiostatin (protein)
chain: YLSECKTGNGKNYRGTMSKTKNGITCQKWSSTSPHRPRFSPATHPSEGLEENYCRNPDNDPQGPWCYTTDPEKRYDYCDILECEEECMHCSGENYDGKISKTMSGLECQAWDSQSPHAHGYIPSKFPNKNLKKNYCRNPDRELRPWCFTTDPNKRWELCDIPRCTTPPPSSGPTYQCLKGTGENYRGNVAVTVSGHTCQHWSAQTPHTHNRTPENFPCKNLDENYCRNPDGKRAPWCHTTNSQVRWEYCKIPSCDSSPVSTEQLAPTAPPELTPVVQDCYHGDGQSYRGTSSTTTTGKKCQSWSSMTPHRHQKTPENYPNAGLTMNYCRNPDADKGPWCFTTDPSVRWEYCNLKKCSGTEA
For B1, the “eNOS levels (immunoblot)” value in assay [3] is given as “significant reduction”. For the same molecule, the “MT1-MMP levels (immunoblot)” value in assay [4] is given as “significant reduction”. Also, in assay [5], the “MMP-2 levels (gelatin zymography)” value is “significant reduction”. In addition, the HMVEC-C migration entry in assay [6] is “decreased”.
